From US20230255948A1 (Stanford University, published 2023)

Experiments:
[1] = target: α4β1 integrin on mouse B16 melanoma cells and mouse RAW macrophage cells (mouse, UniProt Q00651 41-1039; P09055 21-798); test: cell-based or functional assay
[2] = target: α9β1 integrin on mouse RAW macrophage cells (mouse, UniProt B8JK39 29-1036; P09055 21-798); test: cell-based or functional assay
α9β1 integrin on mouse RAW macrophage cells, sequence (B8JK39 29-1036, chain 1 of 2): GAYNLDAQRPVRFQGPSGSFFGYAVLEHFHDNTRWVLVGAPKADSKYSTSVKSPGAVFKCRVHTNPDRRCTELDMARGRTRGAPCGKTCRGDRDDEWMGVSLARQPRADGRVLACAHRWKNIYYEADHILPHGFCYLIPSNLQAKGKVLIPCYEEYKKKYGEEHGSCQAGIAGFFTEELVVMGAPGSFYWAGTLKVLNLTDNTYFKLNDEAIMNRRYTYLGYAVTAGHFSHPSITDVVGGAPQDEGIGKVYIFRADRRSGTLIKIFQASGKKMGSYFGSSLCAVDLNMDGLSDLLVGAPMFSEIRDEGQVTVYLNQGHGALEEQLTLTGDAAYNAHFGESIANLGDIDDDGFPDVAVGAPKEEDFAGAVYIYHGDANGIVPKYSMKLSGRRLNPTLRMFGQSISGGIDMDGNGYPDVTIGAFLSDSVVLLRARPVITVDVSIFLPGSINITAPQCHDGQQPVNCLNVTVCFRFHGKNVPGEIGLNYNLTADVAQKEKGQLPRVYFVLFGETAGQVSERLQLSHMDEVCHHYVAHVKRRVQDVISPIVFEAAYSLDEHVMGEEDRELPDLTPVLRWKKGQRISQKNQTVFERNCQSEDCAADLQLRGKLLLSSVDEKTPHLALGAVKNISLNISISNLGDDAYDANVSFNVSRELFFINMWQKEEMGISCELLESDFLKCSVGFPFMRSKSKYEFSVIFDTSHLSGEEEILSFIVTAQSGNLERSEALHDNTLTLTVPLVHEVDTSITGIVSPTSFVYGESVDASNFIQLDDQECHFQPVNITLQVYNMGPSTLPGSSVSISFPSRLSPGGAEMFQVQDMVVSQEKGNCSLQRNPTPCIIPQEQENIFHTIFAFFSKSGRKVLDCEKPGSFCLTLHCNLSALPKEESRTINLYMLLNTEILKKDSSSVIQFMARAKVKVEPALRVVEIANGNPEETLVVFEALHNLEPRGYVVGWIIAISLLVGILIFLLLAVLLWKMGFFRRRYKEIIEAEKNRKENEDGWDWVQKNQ
α9β1 integrin on mouse RAW macrophage cells, sequence (P09055 21-798, chain 2 of 2): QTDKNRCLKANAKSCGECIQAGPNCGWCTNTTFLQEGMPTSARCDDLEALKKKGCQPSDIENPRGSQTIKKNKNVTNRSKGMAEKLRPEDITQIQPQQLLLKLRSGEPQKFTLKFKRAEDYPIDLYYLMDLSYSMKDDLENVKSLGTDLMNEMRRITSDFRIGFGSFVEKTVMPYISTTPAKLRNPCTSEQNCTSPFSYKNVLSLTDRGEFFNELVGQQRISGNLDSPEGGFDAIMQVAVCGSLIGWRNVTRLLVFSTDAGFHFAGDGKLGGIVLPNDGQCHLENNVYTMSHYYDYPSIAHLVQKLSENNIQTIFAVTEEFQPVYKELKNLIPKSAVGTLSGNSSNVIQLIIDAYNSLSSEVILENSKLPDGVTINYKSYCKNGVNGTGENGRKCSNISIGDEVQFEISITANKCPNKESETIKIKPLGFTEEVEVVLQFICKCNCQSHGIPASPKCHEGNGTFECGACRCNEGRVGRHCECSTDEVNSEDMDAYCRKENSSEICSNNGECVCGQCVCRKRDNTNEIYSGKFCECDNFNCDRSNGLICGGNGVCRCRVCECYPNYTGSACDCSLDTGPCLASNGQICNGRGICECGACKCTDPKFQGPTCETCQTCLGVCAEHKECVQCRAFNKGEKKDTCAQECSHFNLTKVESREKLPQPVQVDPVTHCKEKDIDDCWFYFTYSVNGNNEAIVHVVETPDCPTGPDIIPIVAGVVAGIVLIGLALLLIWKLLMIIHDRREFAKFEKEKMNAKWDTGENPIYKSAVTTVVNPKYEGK

α4β1 integrin on mouse B16 melanoma cells and mouse RAW macrophage cells, sequence (Q00651 41-1039, chain 1 of 2): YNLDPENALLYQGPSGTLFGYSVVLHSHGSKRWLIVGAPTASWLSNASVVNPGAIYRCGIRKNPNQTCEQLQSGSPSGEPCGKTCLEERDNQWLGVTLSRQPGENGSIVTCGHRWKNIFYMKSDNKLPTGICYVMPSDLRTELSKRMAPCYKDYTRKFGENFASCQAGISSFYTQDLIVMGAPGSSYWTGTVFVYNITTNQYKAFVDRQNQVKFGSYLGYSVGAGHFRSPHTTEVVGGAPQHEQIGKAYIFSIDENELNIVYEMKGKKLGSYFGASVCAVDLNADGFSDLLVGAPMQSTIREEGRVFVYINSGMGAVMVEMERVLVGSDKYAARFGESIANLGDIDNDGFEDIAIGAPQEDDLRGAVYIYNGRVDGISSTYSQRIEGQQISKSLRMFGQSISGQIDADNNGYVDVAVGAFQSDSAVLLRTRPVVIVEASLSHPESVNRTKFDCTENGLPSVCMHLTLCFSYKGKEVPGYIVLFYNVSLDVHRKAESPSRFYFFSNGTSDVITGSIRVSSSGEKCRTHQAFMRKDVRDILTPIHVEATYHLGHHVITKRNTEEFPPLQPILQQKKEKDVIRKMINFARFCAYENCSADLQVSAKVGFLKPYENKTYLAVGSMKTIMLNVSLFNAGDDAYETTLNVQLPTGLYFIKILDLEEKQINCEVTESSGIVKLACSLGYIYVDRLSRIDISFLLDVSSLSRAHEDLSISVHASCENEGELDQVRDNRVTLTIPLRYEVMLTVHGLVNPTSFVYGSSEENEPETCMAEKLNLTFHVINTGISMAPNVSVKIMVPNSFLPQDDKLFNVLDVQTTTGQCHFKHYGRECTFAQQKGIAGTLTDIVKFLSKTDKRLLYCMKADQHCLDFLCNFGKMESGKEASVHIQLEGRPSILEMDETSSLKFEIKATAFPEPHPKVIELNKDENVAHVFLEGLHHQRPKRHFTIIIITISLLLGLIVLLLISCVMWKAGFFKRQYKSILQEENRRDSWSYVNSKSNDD
α4β1 integrin on mouse B16 melanoma cells and mouse RAW macrophage cells, sequence (P09055 21-798, chain 2 of 2): as the sequence (P09055 21-798, chain 2 of 2) above

RGDSVVYGLR (ligand) [Thrombin-cleaved OPN-Arg (OPN-R)]
B16 cell adhesion [1]: ~3.5 fold | PGE2 secretion in RAW cells [1]: ~4.2 fold | PGE2 secretion in RAW cells [2]: ~4.2 fold
